The values below come from the supplement of paper PMC12338614.

To fix the notation:
B1: library; numbered along this chain (parent)
chain: MEVVDPQQLGMFTEGELMSVGMDTFIHRIDSTEVIYQPRRKRAKLIGKYLMGDLLGEGSYGKVKEVLDSETLCRRAVKILKKKKLRRIPNGEANVKKEIQLLRRLRHKNVIQLVDVLYNEEKQKMYMVMEYCVCGMQEMLDSVPEKRFPVCQAHGYFCQLIDGLEYLHSQGIVHKDIKPGNLLLTTGGTLKISDLGVAEALHPFAADDTCRTSQGSPAFQPPEIANGLDTFSGFKVDIWSAGVTLYNITTGLYPFEGDNIYKLFENIGKGSYAIPGDCGPPLSDLLKGMLEYEPAKRFSIRQIRQHSWFRKKHPPAEAPVPIPPSPDTKDRWRSMTVVPYLEDLHGADEDEDLFDIEDDIIYTQDFTVPGQVPEEEASHNGQRRGLPKAVCMNGTEAAQLSTKSRAEGRAPNPARKACSASSKIRRLSACKQQ

± gives the uncertainty stated by the source.

In the series the parent is B1. Briefly: STK11 functional score (HeLa growth suppression), rescaled enrichment; synonymous median = 1, nonsense median = 0 (normalised score). The note with it: with HeLa; variant type: missense. In a few lines:
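The values are functional scores: wild-type-corrected log ratios of post- versus pre-selection abundance, rescaled to synonymous and nonsense medians, merged over codons and replicate transfections, and carrying bootstrapped error. They derive from codon-randomised (POPCode), codon-optimised STK11 libraries that Bxb1 integrated at an AAVS1 landing pad in HeLa, with three transfections for each of three regions. Sequencing of tiled gDNA amplicons ran on NextSeq, at ~2 million reads per tile.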
MEVVDPQQLGMFTEGELMSVGMDTFIHRIDSTEVIYQPRRKRAKLIGKYLMGDLLGEGSYGKVKEVLDSETLCRRAVKILKKKKLRRIPNGEANVKKEIQLLRRLRHKNVIQLVDVLYNEEKQKMYMVMEYCVCGMQEMLDSVPEKRFPVCQAHGYFCQLIDGLEYLHSQGIVHKDIKPGNLLLTTGGTLKISDLGVAEALHPFAADDTCRTSQGSPAFQPPEIANGLDTFSGFKVDIWSAGVTLYNITTGLYPFEGDNIYKLFENIGKGSYAIPGDCGPPLSDLLKGMLEYEPAKRFSIRQIRQHSWFRKKHPPAEAPVPIPPSPDTKDRWRSMTVVPYLEDLHGADEDEDLFDIEDGIIYTQDFTVPGQVPEEEASHNGQRRGLPKAVCMNGTEAAQLSTKSRAEGRAPNPARKACSASSKIRRLSACKQQ [D359G]: the STK11 functional score was determined as 1.36 ± 0.2.
As for MEVVDPQQLGMFTEGELMSVGMDTFIHRIDSTEVIYQPRRKRAKLIGKYLMGDLLGEGSYGKVKEVLDSETLCRRAVKILKKKKLRRIPNGEANVKKEIQLLRRLRHKNVIQLVDVLYNEEKQKMYMVMEYCVCGMQEMLDSVPEKRFPVCQAHGYFCQLIDGLEYLHSQGIVHKDIKPGNLLLTTGGTLKISDLGVAEALHPFAADDTCRTSQGSPAFQPPEIANGLDTFSGFKVDIWSAGVTLYNITTGLYPFEGDNIYKLFENIGKGSYAIPGDCGPPLSDLLKGMLEYEPAKRFSIRQIRQHSWFRKKHPPAEAPVPIPPSPDTKDRWRSMTVVPYLEDLHGADEDEDLFDIEDPIIYTQDFTVPGQVPEEEASHNGQRRGLPKAVCMNGTEAAQLSTKSRAEGRAPNPARKACSASSKIRRLSACKQQ [D359P], the STK11 functional score was determined as 1.5 ± 0.3.
Next, MEVVDPQQLGMFTEGELMSVGMDTFIHRIDSTEVIYQPRRKRAKLIGKYLMGDLLGEGSYGKVKEVLDSETLCRRAVKILKKKKLRRIPNGEANVKKEIQLLRRLRHKNVIQLVDVLYNEEKQKMYMVMEYCVCGMQEMLDSVPEKRFPVCQAHGYFCQLIDGLEYLHSQGIVHKDIKPGNLLLTTGGTLKISDLGVAEALHPFAADDTCRTSQGSPAFQPPEIANGLDTFSGFKVDIWSAGVTLYNITTGLYPFEGDNIYKLFENIGKGSYAIPGDCGPPLSDLLKGMLEYEPAKRFSIRQIRQHSWFRKKHPPAEAPVPIPPSPDTKDRWRSMTVVPYLEDLHGADEDEDLFDIEDAIIYTQDFTVPGQVPEEEASHNGQRRGLPKAVCMNGTEAAQLSTKSRAEGRAPNPARKACSASSKIRRLSACKQQ [D359A]: 1.4 ± 0.15.
With MEVVDPQQLGMFTEGELMSVGMDTFIHRIDSTEVIYQPRRKRAKLIGKYLMGDLLGEGSYGKVKEVLDSETLCRRAVKILKKKKLRRIPNGEANVKKEIQLLRRLRHKNVIQLVDVLYNEEKQKMYMVMEYCVCGMQEMLDSVPEKRFPVCQAHGYFCQLIDGLEYLHSQGIVHKDIKPGNLLLTTGGTLKISDLGVAEALHPFAADDTCRTSQGSPAFQPPEIANGLDTFSGFKVDIWSAGVTLYNITTGLYPFEGDNIYKLFENIGKGSYAIPGDCGPPLSDLLKGMLEYEPAKRFSIRQIRQHSWFRKKHPPAEAPVPIPPSPDTKDRWRSMTVVPYLEDLHGADEDEDLFDIEDCIIYTQDFTVPGQVPEEEASHNGQRRGLPKAVCMNGTEAAQLSTKSRAEGRAPNPARKACSASSKIRRLSACKQQ [D359C] the figure was 1.14 ± 0.33; with MEVVDPQQLGMFTEGELMSVGMDTFIHRIDSTEVIYQPRRKRAKLIGKYLMGDLLGEGSYGKVKEVLDSETLCRRAVKILKKKKLRRIPNGEANVKKEIQLLRRLRHKNVIQLVDVLYNEEKQKMYMVMEYCVCGMQEMLDSVPEKRFPVCQAHGYFCQLIDGLEYLHSQGIVHKDIKPGNLLLTTGGTLKISDLGVAEALHPFAADDTCRTSQGSPAFQPPEIANGLDTFSGFKVDIWSAGVTLYNITTGLYPFEGDNIYKLFENIGKGSYAIPGDCGPPLSDLLKGMLEYEPAKRFSIRQIRQHSWFRKKHPPAEAPVPIPPSPDTKDRWRSMTVVPYLEDLHGADEDEDLFDIEDMIIYTQDFTVPGQVPEEEASHNGQRRGLPKAVCMNGTEAAQLSTKSRAEGRAPNPARKACSASSKIRRLSACKQQ [D359M], 1.6 ± 0.14.
Next, MEVVDPQQLGMFTEGELMSVGMDTFIHRIDSTEVIYQPRRKRAKLIGKYLMGDLLGEGSYGKVKEVLDSETLCRRAVKILKKKKLRRIPNGEANVKKEIQLLRRLRHKNVIQLVDVLYNEEKQKMYMVMEYCVCGMQEMLDSVPEKRFPVCQAHGYFCQLIDGLEYLHSQGIVHKDIKPGNLLLTTGGTLKISDLGVAEALHPFAADDTCRTSQGSPAFQPPEIANGLDTFSGFKVDIWSAGVTLYNITTGLYPFEGDNIYKLFENIGKGSYAIPGDCGPPLSDLLKGMLEYEPAKRFSIRQIRQHSWFRKKHPPAEAPVPIPPSPDTKDRWRSMTVVPYLEDLHGADEDEDLFDIEDIIIYTQDFTVPGQVPEEEASHNGQRRGLPKAVCMNGTEAAQLSTKSRAEGRAPNPARKACSASSKIRRLSACKQQ [D359I]: 0.856 ± 0.075.
For MEVVDPQQLGMFTEGELMSVGMDTFIHRIDSTEVIYQPRRKRAKLIGKYLMGDLLGEGSYGKVKEVLDSETLCRRAVKILKKKKLRRIPNGEANVKKEIQLLRRLRHKNVIQLVDVLYNEEKQKMYMVMEYCVCGMQEMLDSVPEKRFPVCQAHGYFCQLIDGLEYLHSQGIVHKDIKPGNLLLTTGGTLKISDLGVAEALHPFAADDTCRTSQGSPAFQPPEIANGLDTFSGFKVDIWSAGVTLYNITTGLYPFEGDNIYKLFENIGKGSYAIPGDCGPPLSDLLKGMLEYEPAKRFSIRQIRQHSWFRKKHPPAEAPVPIPPSPDTKDRWRSMTVVPYLEDLHGADEDEDLFDIEDEIIYTQDFTVPGQVPEEEASHNGQRRGLPKAVCMNGTEAAQLSTKSRAEGRAPNPARKACSASSKIRRLSACKQQ [D359E], the STK11 functional score worked out at 0.865 ± 0.47.
Next, MEVVDPQQLGMFTEGELMSVGMDTFIHRIDSTEVIYQPRRKRAKLIGKYLMGDLLGEGSYGKVKEVLDSETLCRRAVKILKKKKLRRIPNGEANVKKEIQLLRRLRHKNVIQLVDVLYNEEKQKMYMVMEYCVCGMQEMLDSVPEKRFPVCQAHGYFCQLIDGLEYLHSQGIVHKDIKPGNLLLTTGGTLKISDLGVAEALHPFAADDTCRTSQGSPAFQPPEIANGLDTFSGFKVDIWSAGVTLYNITTGLYPFEGDNIYKLFENIGKGSYAIPGDCGPPLSDLLKGMLEYEPAKRFSIRQIRQHSWFRKKHPPAEAPVPIPPSPDTKDRWRSMTVVPYLEDLHGADEDEDLFDIEDHIIYTQDFTVPGQVPEEEASHNGQRRGLPKAVCMNGTEAAQLSTKSRAEGRAPNPARKACSASSKIRRLSACKQQ [D359H]: 1.21 ± 0.39; MEVVDPQQLGMFTEGELMSVGMDTFIHRIDSTEVIYQPRRKRAKLIGKYLMGDLLGEGSYGKVKEVLDSETLCRRAVKILKKKKLRRIPNGEANVKKEIQLLRRLRHKNVIQLVDVLYNEEKQKMYMVMEYCVCGMQEMLDSVPEKRFPVCQAHGYFCQLIDGLEYLHSQGIVHKDIKPGNLLLTTGGTLKISDLGVAEALHPFAADDTCRTSQGSPAFQPPEIANGLDTFSGFKVDIWSAGVTLYNITTGLYPFEGDNIYKLFENIGKGSYAIPGDCGPPLSDLLKGMLEYEPAKRFSIRQIRQHSWFRKKHPPAEAPVPIPPSPDTKDRWRSMTVVPYLEDLHGADEDEDLFDIEDLIIYTQDFTVPGQVPEEEASHNGQRRGLPKAVCMNGTEAAQLSTKSRAEGRAPNPARKACSASSKIRRLSACKQQ [D359L]: 1.53 ± 0.17; MEVVDPQQLGMFTEGELMSVGMDTFIHRIDSTEVIYQPRRKRAKLIGKYLMGDLLGEGSYGKVKEVLDSETLCRRAVKILKKKKLRRIPNGEANVKKEIQLLRRLRHKNVIQLVDVLYNEEKQKMYMVMEYCVCGMQEMLDSVPEKRFPVCQAHGYFCQLIDGLEYLHSQGIVHKDIKPGNLLLTTGGTLKISDLGVAEALHPFAADDTCRTSQGSPAFQPPEIANGLDTFSGFKVDIWSAGVTLYNITTGLYPFEGDNIYKLFENIGKGSYAIPGDCGPPLSDLLKGMLEYEPAKRFSIRQIRQHSWFRKKHPPAEAPVPIPPSPDTKDRWRSMTVVPYLEDLHGADEDEDLFDIERDIIYTQDFTVPGQVPEEEASHNGQRRGLPKAVCMNGTEAAQLSTKSRAEGRAPNPARKACSASSKIRRLSACKQQ [D358R]: 1.34 ± 0.27.
Next, MEVVDPQQLGMFTEGELMSVGMDTFIHRIDSTEVIYQPRRKRAKLIGKYLMGDLLGEGSYGKVKEVLDSETLCRRAVKILKKKKLRRIPNGEANVKKEIQLLRRLRHKNVIQLVDVLYNEEKQKMYMVMEYCVCGMQEMLDSVPEKRFPVCQAHGYFCQLIDGLEYLHSQGIVHKDIKPGNLLLTTGGTLKISDLGVAEALHPFAADDTCRTSQGSPAFQPPEIANGLDTFSGFKVDIWSAGVTLYNITTGLYPFEGDNIYKLFENIGKGSYAIPGDCGPPLSDLLKGMLEYEPAKRFSIRQIRQHSWFRKKHPPAEAPVPIPPSPDTKDRWRSMTVVPYLEDLHGADEDEDLFDIEQDIIYTQDFTVPGQVPEEEASHNGQRRGLPKAVCMNGTEAAQLSTKSRAEGRAPNPARKACSASSKIRRLSACKQQ [D358Q]: 1.49 ± 0.3; MEVVDPQQLGMFTEGELMSVGMDTFIHRIDSTEVIYQPRRKRAKLIGKYLMGDLLGEGSYGKVKEVLDSETLCRRAVKILKKKKLRRIPNGEANVKKEIQLLRRLRHKNVIQLVDVLYNEEKQKMYMVMEYCVCGMQEMLDSVPEKRFPVCQAHGYFCQLIDGLEYLHSQGIVHKDIKPGNLLLTTGGTLKISDLGVAEALHPFAADDTCRTSQGSPAFQPPEIANGLDTFSGFKVDIWSAGVTLYNITTGLYPFEGDNIYKLFENIGKGSYAIPGDCGPPLSDLLKGMLEYEPAKRFSIRQIRQHSWFRKKHPPAEAPVPIPPSPDTKDRWRSMTVVPYLEDLHGADEDEDLFDIESDIIYTQDFTVPGQVPEEEASHNGQRRGLPKAVCMNGTEAAQLSTKSRAEGRAPNPARKACSASSKIRRLSACKQQ [D358S]: 1.47 ± 0.25; MEVVDPQQLGMFTEGELMSVGMDTFIHRIDSTEVIYQPRRKRAKLIGKYLMGDLLGEGSYGKVKEVLDSETLCRRAVKILKKKKLRRIPNGEANVKKEIQLLRRLRHKNVIQLVDVLYNEEKQKMYMVMEYCVCGMQEMLDSVPEKRFPVCQAHGYFCQLIDGLEYLHSQGIVHKDIKPGNLLLTTGGTLKISDLGVAEALHPFAADDTCRTSQGSPAFQPPEIANGLDTFSGFKVDIWSAGVTLYNITTGLYPFEGDNIYKLFENIGKGSYAIPGDCGPPLSDLLKGMLEYEPAKRFSIRQIRQHSWFRKKHPPAEAPVPIPPSPDTKDRWRSMTVVPYLEDLHGADEDEDLFDIEVDIIYTQDFTVPGQVPEEEASHNGQRRGLPKAVCMNGTEAAQLSTKSRAEGRAPNPARKACSASSKIRRLSACKQQ [D358V]: 1.46 ± 0.2.
With MEVVDPQQLGMFTEGELMSVGMDTFIHRIDSTEVIYQPRRKRAKLIGKYLMGDLLGEGSYGKVKEVLDSETLCRRAVKILKKKKLRRIPNGEANVKKEIQLLRRLRHKNVIQLVDVLYNEEKQKMYMVMEYCVCGMQEMLDSVPEKRFPVCQAHGYFCQLIDGLEYLHSQGIVHKDIKPGNLLLTTGGTLKISDLGVAEALHPFAADDTCRTSQGSPAFQPPEIANGLDTFSGFKVDIWSAGVTLYNITTGLYPFEGDNIYKLFENIGKGSYAIPGDCGPPLSDLLKGMLEYEPAKRFSIRQIRQHSWFRKKHPPAEAPVPIPPSPDTKDRWRSMTVVPYLEDLHGADEDEDLFDIEWDIIYTQDFTVPGQVPEEEASHNGQRRGLPKAVCMNGTEAAQLSTKSRAEGRAPNPARKACSASSKIRRLSACKQQ [D358W] the figure was 1.46 ± 0.16.
